Assays:
[1] = molecular target: T1, PF4/heparin complex (human PF4 complexed with heparin) (human, UniProt P02776 32-101); assay: BLI (Octet), biotinylated PF4/heparin on streptavidin sensors, 1:1 model; scFv at 0.5 µg/mL (response near baseline)
T1 construct: Multimeric complex of PF4 with heparin (not a protein); In the EIAs: PF4 captured on biotinylated heparin on streptavidin plates; In the SRA: platelets with 0.2 U/mL heparin; also called PF4 and heparin complexes
T1 sequence: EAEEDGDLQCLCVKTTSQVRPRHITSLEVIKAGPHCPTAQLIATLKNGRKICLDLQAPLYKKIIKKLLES
Description: (§1) The Octet-QK Red 96 (FortéBio, Menlo Park, CA) instrumentation was used to conduct all BLI experiments. A 96-well microtiter plate (black, flat-bottom) was used to hold 200 μL per well of either sample or buffer. Pre-coated streptavidin biosensor tips (FortéBio) were hydrated in phosphate buffered saline (PBS) containing 1% bovine serum albumin (BSA, Sigma-Aldrich) before performing all kinetic assays. Each step was performed at an operating temperature of 23° C. with agitation at 1000 rpm. Streptavidin tips were first equilibrated in PBS+1% BSA to establish a baseline. […] The PF4-coated tips were then dipped into PBS+1% BSA for 13 minutes to re-establish a baseline. Tips were then incubated in an analyte solution containing half-fold dilutions of wildtype scFv (4.0, 2.0, 1.0, 0.5, 0.25 μg/mL in PBS+1% BSA) for 10 minutes to measure association. For mutant scFv association, tips were incubated in an analyte solution containing 200 μL of each mutant and wildtype scFv at a final concentration of 1 μg/mL in PBS+1% BSA. Antibody dissociation steps were performed by dipping sensors in wells containing PBS+1% BSA for 56 minutes. The following negative controls included in these kinetic experiments were also measured: 200 μL of buffer to replace both the antigen and scFv and 200 μL buffer replacing scFv only. Each experiment was performed with PF4 or with PF4/heparin as the immobilized antigen. […]

[2] = molecular target: T2, Human PF4 (CXCL4), biotinylated, without heparin (human, UniProt P02776 32-101, biotinylated with EZ-link-Sulfo-NHS-LC-Biotin (sites not given)); assay: BLI (Octet), biotinylated PF4 without heparin on streptavidin sensors, 1:1 model; scFv at 0.25 µg/mL (response near baseline)
T2 construct: Immobilised on streptavidin biosensors for BLI; also called PF4 alone; platelet factor 4
T2 sequence: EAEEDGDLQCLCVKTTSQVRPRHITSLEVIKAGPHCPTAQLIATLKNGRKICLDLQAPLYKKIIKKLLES
Description: (§2) All data was analyzed based on a 1:1 homogenous ligand binding model using Octet® User Software version 3.1.
as §1, with “Antibody dissociation steps were performed by dipping sensors in wells containing PBS+1% BSA for 56 minutes.” left out, “only.” for “only. Each experiment was performed with PF4 or with PF4/heparin as the immobilized antigen.”

[3] = molecular target: T2, Human PF4 (CXCL4), biotinylated, …; assay: BLI (Octet), biotinylated PF4 without heparin on streptavidin sensors, 1:1 model; scFv at 1.0 µg/mL
Description: (§3) The Octet-QK Red 96 (FortéBio, Menlo Park, CA) instrumentation was used to conduct all BLI experiments. A 96-well microtiter plate (black, flat-bottom) was used to hold 200 μL per well of either sample or buffer. Pre-coated streptavidin biosensor tips (FortéBio) were hydrated in phosphate buffered saline (PBS) containing 1% bovine serum albumin (BSA, Sigma-Aldrich) before performing all kinetic assays. Each step was performed at an operating temperature of 23° C. with agitation at 1000 rpm. Streptavidin tips were first equilibrated in PBS+1% BSA to establish a baseline. […] The PF4-coated tips were then dipped into PBS+1% BSA for 13 minutes to re-establish a baseline. Tips were then incubated in an analyte solution containing half-fold dilutions of wildtype scFv (4.0, 2.0, 1.0, 0.5, 0.25 μg/mL in PBS+1% BSA) for 10 minutes to measure association. For mutant scFv association, tips were incubated in an analyte solution containing 200 μL of each mutant and wildtype scFv at a final concentration of 1 μg/mL in PBS+1% BSA. Antibody dissociation steps were performed by dipping sensors in wells containing PBS+1% BSA for 56 minutes. The following negative controls included in these kinetic experiments were also measured: 200 μL of buffer to replace both the antigen and scFv and 200 μL buffer replacing scFv only. Each experiment was performed with PF4 or with PF4/heparin as the immobilized antigen.
(§4) BLI experiments were performed to evaluate binding responses and affinities of wildtype and mutant scFv. Biotinylated PF4 alone or complexed with heparin was immobilized on streptavidin biosensors and used to capture wildtype scFv. Half-fold serial dilutions of wildtype scFv ranging from 0.25 μg/mL to 4 μg/mL were used to determine the optimal concentrations for future experiments PF4 (PF4 FIG. 3; PF4/heparin FIG. 4).

[4] = molecular target: T1, PF4/heparin complex (human PF4 …); assay: BLI (Octet), biotinylated PF4/heparin on streptavidin sensors, 1:1 model; scFv at 4.0 µg/mL
Description: as §3, §4

[5] = molecular target: T2, Human PF4 (CXCL4), biotinylated, …; assay: BLI (Octet), biotinylated PF4 without heparin on streptavidin sensors, 1:1 model; scFv at 2.0 µg/mL
Description: as §3, §4

[6] = molecular target: T2, Human PF4 (CXCL4), biotinylated, …; assay: BLI (Octet), biotinylated PF4 without heparin on streptavidin sensors, 1:1 model; scFv at 0.25 µg/mL (response near baseline, software limit value)
Description: as §2
as §1, with “Antibody dissociation steps were performed by dipping sensors in wells containing PBS+1% BSA for 56 minutes.” left out, “only.” for “only. Each experiment was performed with PF4 or with PF4/heparin as the immobilized antigen.”

[7] = molecular target: T1, PF4/heparin complex (human PF4 …); assay: BLI (Octet), biotinylated PF4/heparin on streptavidin sensors, 1:1 model; scFv at 0.5 µg/mL (response near baseline, software limit value)
Description: as §1

[8] = molecular target: T1, PF4/heparin complex (human PF4 …); assay: BLI (Octet), biotinylated PF4/heparin on streptavidin sensors, 1:1 model; scFv at 0.25 µg/mL (response near baseline)
Description: as §1

[9] = molecular target: T1, PF4/heparin complex (human PF4 …); assay: BLI (Octet), biotinylated PF4/heparin on streptavidin sensors, 1:1 model; scFv at 0.25 µg/mL (response near baseline, software limit value)
Description: as §1

[10] = molecular target: T2, Human PF4 (CXCL4), biotinylated, …; assay: BLI (Octet), biotinylated PF4 without heparin on streptavidin sensors, 1:1 model; scFv at 4.0 µg/mL
Description: as §3, §4

[11] = molecular target: T1, PF4/heparin complex (human PF4 …); assay: BLI (Octet), biotinylated PF4/heparin on streptavidin sensors, 1:1 model; scFv at 1.0 µg/mL
Description: as §3, §4

[12] = molecular target: T1, PF4/heparin complex (human PF4 …); assay: BLI (Octet), biotinylated PF4/heparin on streptavidin sensors, 1:1 model; scFv at 2.0 µg/mL
Description: as §3, §4

- koff [1]: 0.00504 s⁻¹
- koff [2]: 0.021 s⁻¹
- Kd [3]: 5.71 nM
- koff [3]: 0.000853 s⁻¹
- kon [3]: 149000 M⁻¹ s⁻¹
- Kd [4]: 39.3 nM
- koff [4]: 0.000871 s⁻¹
- kon [4]: 22200 M⁻¹ s⁻¹
- Kd [5]: 9.59 nM
- koff [5]: 0.000515 s⁻¹
- kon [5]: 53800 M⁻¹ s⁻¹
- Kd [6]: < 0.001 nM
- Kd [7]: < 0.001 nM
- koff [8]: 0.00042 s⁻¹
- Kd [9]: < 0.001 nM
- Kd [10]: 24.1 nM
- koff [10]: 0.000596 s⁻¹
- kon [10]: 24800 M⁻¹ s⁻¹
- Kd [11]: 0.961 nM
- koff [11]: 0.000264 s⁻¹
- kon [11]: 274000 M⁻¹ s⁻¹
- Kd [12]: 9.18 nM
- koff [12]: 0.000571 s⁻¹
- kon [12]: 62100 M⁻¹ s⁻¹
B1: Wildtype scFv (KKO-derived single chain variable fragment) (scFv)
scFv: DIQMIQSQKFMSTSVGDRVTVTCKASQNVGTNVAWYQQKPGQSPNALIYSASYRYSGVPDRFTGSGSGTDFTLTITNVQSEDLADYFCQQYNSYPLTFGTGTKLDLKGGGGSGGGGSGGGGSVQLQQSGAELVKPGASVKLSCKASGYTFTNYFIYWVKQRPGQGLEWIGEINPRNGDTDFNEKFESRATLTVDKSSSTAYMQLSSLTSEDSAIYYCTRSPYGNNYGFTYWGQGTLVTVSA
notes: VL-(G4S)3 linker-VH; expressed in E. coli BL21 from pADL-22c, purified on Ni-NTA as histidine-tagged scFv, about 28 kDa; also called WT; KKO-scFv; not shown: histidine tag from the pADL-22c vector

— patent publication US20250011413A1 (MCMASTER UNIVERSITY, published 2025)
